Results from patent publication US20200040059A1 (ALPINE IMMUNE SCIENCES, published 2020).

B1: variant PD-L2 IgV-Fc V89D (Fc fusion, not shown: a dimerising Fc or GST; small tags and cut ends)
chain: LFTVTVPKELYIIEHGSNVTLECNFDTGSHVNLGAITASLQKVENDTSPHRERATLLEEQLPLGKASFHIPQVQVRDEGQYQCIIIYGDAWDYKYLTLK
B2: ICOSL variant N52D ECD-Fc fusion (Fc fusion)
chain: DTQEKEVRAMVGSDVELSCACPEGSRFDLNDVYVYWQTSESKTVVTYHIPQDSSLENVDSRYRNRALMSPAGMLRGDFSLRLFNVTPQDEQKFHCLVLSQSLGFQEVLSVEVTLHVAANFSVPVVSAPHSPSQDELTFTCTSINGYPRPNVYWINKTDNSLLDQALQNDTVFLNMRGLYDVVSVLRIARTPSVNIGCCIENVLLQQNLTVGSQTGNDIGERDKITENPVSTGEKNAAT
notes: not shown: no entry of the listing is held
B3: ICOSL variant N52H/N57Y/Q100P ECD-Fc fusion (Fc fusion)
chain: DTQEKEVRAMVGSDVELSCACPEGSRFDLNDVYVYWQTSESKTVVTYHIPQHSSLEYVDSRYRNRALMSPAGMLRGDFSLRLFNVTPQDEQKFHCLVLSPSLGFQEVLSVEVTLHVAANFSVPVVSAPHSPSQDELTFTCTSINGYPRPNVYWINKTDNSLLDQALQNDTVFLNMRGLYDVVSVLRIARTPSVNIGCCIENVLLQQNLTVGSQTGNDIGERDKITENPVSTGEKNAAT
notes: as for B2
B4: ICOSL variant N52S/Y146C/Y152C ECD-Fc fusion (Fc fusion, not shown: a dimerising Fc or GST; small tags and cut ends)
chain: DTQEKEVRAMVGSDVELSCACPEGSRFDLNDVYVYWQTSESKTVVTYHIPQSSSLENVDSRYRNRALMSPAGMLRGDFSLRLFNVTPQDEQKFHCLVLSQSLGFQEVLSVEVTLHVAANFSVPVVSAPHSPSQDELTFTCTSINGCPRPNVCWINKTDNSLLDQALQNDTVFLNMRGLYDVVSVLRIARTPSVNIGCCIENVLLQQNLTVGSQTGNDIGERDKITENPVSTGEKNAAT
B5: ICOSL variant N52S/S130G/Y152C ECD-Fc fusion (Fc fusion)
chain: DTQEKEVRAMVGSDVELSCACPEGSRFDLNDVYVYWQTSESKTVVTYHIPQSSSLENVDSRYRNRALMSPAGMLRGDFSLRLFNVTPQDEQKFHCLVLSQSLGFQEVLSVEVTLHVAANFSVPVVSAPHGPSQDELTFTCTSINGYPRPNVCWINKTDNSLLDQALQNDTVFLNMRGLYDVVSVLRIARTPSVNIGCCIENVLLQQNLTVGSQTGNDIGERDKITENPVSTGEKNAAT
notes: not shown: The AAA linker to it is left out
B6: ICOSL variant F120S/Y152H/N201S ECD-Fc fusion (Fc fusion)
chain: DTQEKEVRAMVGSDVELSCACPEGSRFDLNDVYVYWQTSESKTVVTYHIPQNSSLENVDSRYRNRALMSPAGMLRGDFSLRLFNVTPQDEQKFHCLVLSQSLGFQEVLSVEVTLHVAANSSVPVVSAPHSPSQDELTFTCTSINGYPRPNVHWINKTDNSLLDQALQNDTVFLNMRGLYDVVSVLRIARTPSVNIGCCIESVLLQQNLTVGSQTGNDIGERDKITENPVSTGEKNAAT
notes: not shown: C220S/R292C/N297G/V302C) and the AAA linker to it

Target: PD-1-Fc
Test: Fortebio (BLI), PD-1-Fc

For B1, the “Fortebio binding to PD-1-Fc Response Units” value was 0.005 Response Units.

Target: human ICOS as used for the 'ICOS OD' read-out of Table 14 (human)
Sequence (Q9Y6W8 whole entry): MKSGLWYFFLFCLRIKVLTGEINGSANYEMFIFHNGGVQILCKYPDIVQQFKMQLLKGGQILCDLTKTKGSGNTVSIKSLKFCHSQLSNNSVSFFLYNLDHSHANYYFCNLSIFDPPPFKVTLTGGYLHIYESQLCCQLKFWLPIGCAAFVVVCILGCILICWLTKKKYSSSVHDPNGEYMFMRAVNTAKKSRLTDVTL
Test: binding read as OD; format not described

Going from B2 to B3, the “ICOS OD” value falls from 1.59 OD to 1.57 OD.

First: B4
Second: B5
The “ICOS OD” value of the first is higher: 1.26 OD for the first, 0.16 OD for the second.

With B6 the “ICOS OD” value was 0.63 OD.

Compared with B2, B3 is lower in “ICOS OD parental ratio” value: 1.85 ratio to WT ICOSL ECD-Fc for the first, 1.83 ratio to WT ICOSL ECD-Fc for the second.

First: B4
Second: B5
The “ICOS OD parental ratio” value of the first is higher: 1.47 ratio to WT ICOSL ECD-Fc for the first, 0.19 ratio to WT ICOSL ECD-Fc for the second.

With B6 the “ICOS OD parental ratio” value was 0.73 ratio to WT ICOSL ECD-Fc.
